Measurements taken from patent publication US6982321.

Target: isolated VL-domain of the reshaped anti-lysozyme Fv-fragment (HuVLLYS)
Experiment: formaldehyde crosslinking of Fv, overloaded SDS gel

fraction of crosslinked material: < 5%
B1: isolated VL-domain of the reshaped anti-lysozyme Fv-fragment (HuVLLYS) (protein)
VL: DIQMTQSPSSLSASVGDRVTITCRASGNIHNYLAWYQQKPGKAPKLLIYYTTTLADGVPSRFSGSGSGTDFTFTISSLQPEDIATYYCQHFWSTPRTFGQGTKVEIK
